{"source": "patent US20250163127A1", "about": "(published 2025)", "binders": {"B1": {"name": "PD-L2 1417-IL16 (other)", "chain": "LFTVTVPKELYIIEQGSNVTLECNFDTGSHVNLGAITASLQKVENDASPHRERATLLEEQLPLGRALFHIPQVQVRDEGQYRCIIIYGDAWDYKYLTLKVKAGSGGSGGGGSGGGGSSAASASAASDVSVESTAEATVCTVTLEKMSAGLGFSLEGGKGSLHGDKPLTINRIFKGAASEQSETVQPGDEILQLGGTAMQGLTRFEAWNIIKALPDGPVTIVIRRKSLQSKETTAAGDSDYKDDDDKHHHHHH"}, "B2": {"name": "CD80 2617-PD-L2 1417 (other)", "chain": "VIHVTKEVKEVATLSCGHNVSVEELAQTRIYWQKGKKMVLTMMSGDMNIWPEYENRTIFDITNNLSIVILDPRPSDEGTYECVVLKYEKDAFKREHLAEVGSGGSGGGGSGGGGSLFTVTVPKELYIIEQGSNVTLECNFDTGSHVNLGAITASLQKVENDASPHRERATLLEEQLPLGRALFHIPQVQVRDEGQYRCIIIYGDAWDYKYLTLKVKADYKDDDDKHHHHHH"}, "B3": {"name": "PD-L1 303-CD155 665-CTLA-4 3037-Fc (Fc fusion)", "chain": "FTVTVPKDLYVVEYGSNMTIECKFPVEKQLDLAALIVYWEMEGKDIIQFVHGEEDQKAQHSSYRQRARLLKDQLSLGNAALQITDVKLQDAGVYRCMISYGGGADYKRITVKVNAGGGGSGGGGSGGGGSWPPPGTGDVVVQAPTQVSGFLGDSVTLPCYLQVPNMEVTHVSQLTWARHGESGSMAVFHQTQGPWYAESKRLEFVAARLGAELRNASLRVFGLRAEDEGNYTCQFVTFPQRSRSVDIWLRVLGGGGSGGGGSGGGGSKAMHVAQPAVVFASSHGIASFVCEYASPWKATEVRVTVLRQADSQVTEVCAATYMTGNELTFLDDSICTGTSSGNQVNLTIQGLRAMDTGLYICKVEQMYPPPYLLGIGNGTQIYVIDPEPCPDSDGSGGGGSEPKSSDKTHTCPPCPAPEAEGAPSVFLFPPKPKDTLMISRTPEVTCVVVDVSHEDPEVKFNWYVDGVEVHNAKTKPREEQYNSTYRVVSVLTVLHQDWLNGKEYKCKVSNKALPAPIEKTISKAKGQPREPQVYTLPPSRDELTKNQVSLTCLVKGFYPSDIAVEWESNGQPENNYKTTPPVLDSDGSFFLYSKLTVDKSRWQQGNVFSCSVMHEALHNHYTQKSLSLSPG"}, "B4": {"name": "CD155 665-ICOSL 2264-ICOSL 2264-CD155 665 (other)", "chain": "WPPPGTGDVVVQAPTQVSGFLGDSVTLPCYLQVPNMEVTHVSQLTWARHGESGSMAVFHQTQGPWYAESKRLEFVAARLGAELRNASLRVFGLRAEDEGNYTCQFVTFPQRSRSVDIWLRVLGGGGSGGGGTGGGGSDTQEKEVRAMVGSDVELSCACPEGSRFDLNDVYVYWQTSESKTVVTYHIPQHSSLEYVDSRYRNRALMSPAGMLRGDFSLRLFNVTPQDEQKFHCLVLSRSLGFQEVLSVEVTLHVAANFSVGGGGSGGGGSGGGGSDTQEKEVRAMVGSDVELSCACPEGSRFDLNDVYVYWQTSESKTVVTYHIPQHSSLEYVDSRYRNRALMSPAGMLRGDFSLRLFNVTPQDEQKFHCLVLSRSLGFQEVLSVEVTLHVAANFSVGSGGSGGGGSGGGGSWPPPGTGDVVVQAPTQVSGFLGDSVTLPCYLQVPNMEVTHVSQLTWARHGESGSMAVFHQTQGPWYAESKRLEFVAARLGAELRNASLRVFGLRAEDEGNYTCQFVTFPQRSRSVDIWLRVLGSGGGGSDYKDDDDKHHHHHH"}, "B5": {"name": "PD-L1 303-CTLA-4 3495-Fc (Fc fusion)", "chain": "FTVTVPKDLYVVEYGSNMTIECKFPVEKQLDLAALIVYWEMEGKDIIQFVHGEEDQKAQHSSYRQRARLLKDQLSLGNAALQITDVKLQDAGVYRCMISYGGGADYKRITVKVNAGSGGSGGGGSGGGGSKAMHVAQPAVVLASSRGIASFVCEYASPGKATEVRVTVLRQADSQVTEVCAATYMMGNELTFLDDSICTGTSSGNQVNLTIQGLRAMDTGLYICKVELMYPPPYYLGIGNGTQIYVIDPEPSPDSDQGGGGSGSGGGGSEPKSSDKTHTCPPCPAPEAEGAPSVFLFPPKPKDTLMISRTPEVTCVVVDVSHEDPEVKFNWYVDGVEVHNAKTKPREEQYNSTYRVVSVLTVLHQDWLNGKEYKCKVSNKALPAPIEKTISKAKGQPREPQVYTLPPSRDELTKNQVSLTCLVKGFYPSDIAVEWESNGQPENNYKTTPPVLDSDGSFFLYSKLTVDKSRWQQGNVFSCSVMHEALHNHYTQKSLSLSPG"}, "B6": {"name": "PD-L1 303-CTLA-4 3037-Fc (SEQ ID NO 3523) (Fc fusion)", "chain": "FTVTVPKDLYVVEYGSNMTIECKFPVEKQLDLAALIVYWEMEGKDIIQFVHGEEDQKAQHSSYRQRARLLKDQLSLGNAALQITDVKLQDAGVYRCMISYGGGADYKRITVKVNAGSGGSGGGGSGGGGSKAMHVAQPAVVLASSRGIASFVCEYASPWKATEVRVTVLRQADSQVTEVCAATYMMGSELTFPDDSICTGTSSGNQVNLTIRGLRAMDTGLYICKVEQMYPPPYLLGIGNGTQIYVIDPEPCPDSDGGGGSGSGGGGSEPKSSDKTHTCPPCPAPEAEGAPSVFLFPPKPKDTLMISRTPEVTCVVVDVSHEDPEVKFNWYVDGVEVHNAKTKPREEQYNSTYRVVSVLTVLHQDWLNGKEYKCKVSNKALPAPIEKTISKAKGQPREPQVYTLPPSRDELTKNQVSLTCLVKGFYPSDIAVEWESNGQPENNYKTTPPVLDSDGSFFLYSKLTVDKSRWQQGNVFSCSVMHEALHNHYTQKSLSLSPG"}, "B7": {"name": "CD155 665-ICOSL 2264-ICOSL 2264-CD155 665 (other)", "chain": "B4 chain"}}, "key": {"human PD-1 [1]": {"target": "T1, human PD-1 (human, UniProt Q15116)", "assay": "flow cytometry, CHO/PD-1 cells, 100 nM, anti-FLAG-PE"}, "human PD-1 [2]": {"target": "T1, human PD-1", "assay": "flow cytometry, CHO/PD-1 cells, 100 nM, anti-Flag"}, "human CTLA-4": {"target": "human CTLA-4 (human)", "sequence (chain, as listed by the source)": "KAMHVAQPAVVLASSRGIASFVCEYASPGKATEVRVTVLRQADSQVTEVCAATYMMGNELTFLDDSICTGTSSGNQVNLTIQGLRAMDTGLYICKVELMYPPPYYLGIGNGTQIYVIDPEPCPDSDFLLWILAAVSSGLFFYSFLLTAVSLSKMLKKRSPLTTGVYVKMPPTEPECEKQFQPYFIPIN", "assay": "flow cytometry, CHO/CTLA-4 cells, 100 nM, anti-Flag"}, "human CD28 [3]": {"target": "T2, human CD28 (human, UniProt P10747)", "assay": "flow cytometry, Jurkat cells (endogenous CD28), 100 nM, anti-Flag"}, "CD80": {"target": "T3, CD80 (human)", "T3 chain": "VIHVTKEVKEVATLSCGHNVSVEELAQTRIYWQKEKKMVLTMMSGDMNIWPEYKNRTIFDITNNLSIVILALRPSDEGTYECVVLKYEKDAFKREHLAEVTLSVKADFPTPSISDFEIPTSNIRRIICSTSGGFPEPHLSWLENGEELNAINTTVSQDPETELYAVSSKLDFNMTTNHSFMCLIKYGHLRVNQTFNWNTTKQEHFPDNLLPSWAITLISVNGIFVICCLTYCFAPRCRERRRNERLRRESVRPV", "assay": "flow cytometry, CHO-CD80 cells"}, "human CD28 [4]": {"target": "T2, human CD28", "assay": "flow cytometry, Expi-CD28 cells"}, "human PD-1 [5]": {"target": "T1, human PD-1", "assay": "flow cytometry, Jurkat/IL-2/PD-1 cells"}, "human TIGIT": {"target": "T4, human TIGIT (human, UniProt Q495A1)", "T4 sequence": "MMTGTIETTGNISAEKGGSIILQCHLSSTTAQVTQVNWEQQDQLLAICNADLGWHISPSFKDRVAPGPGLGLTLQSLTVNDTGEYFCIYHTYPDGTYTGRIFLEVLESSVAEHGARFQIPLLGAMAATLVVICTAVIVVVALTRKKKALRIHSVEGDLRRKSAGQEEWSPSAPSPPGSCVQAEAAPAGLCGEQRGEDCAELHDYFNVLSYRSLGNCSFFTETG", "assay": "flow cytometry, Jurkat/IL-2/TIGIT cells"}, "human CD80": {"target": "T5, human CD80 (human)", "T5 chain": "T3 chain", "assay": "cell-based or functional assay"}, "PD-1": {"target": "PD-1 (human, UniProt Q15116)", "assay": "cell-based or functional assay"}, "CD28": {"target": "CD28 (human, UniProt P10747)", "assay": "cell-based or functional assay"}, "TIGIT": {"target": "T6, TIGIT (human, UniProt Q495A1)", "T6 sequence": "T4 sequence", "assay": "cell-based or functional assay"}}, "data": [{"binder": "B1", "values": [{"measurement": "MFI", "setting": "human PD-1 [1]", "result": 19900}]}, {"binder": "B2", "values": [{"measurement": "MFI", "setting": "human PD-1 [2]", "result": 1390}, {"measurement": "MFI", "setting": "human CTLA-4", "result": 75.5}, {"measurement": "MFI", "setting": "human CD28 [3]", "result": 110}]}, {"binder": "B3", "values": [{"measurement": "EC50", "setting": "CD80", "result": 3.8, "unit": "nM"}, {"measurement": "EC50", "setting": "human CD28 [4]", "result": 4.15, "unit": "nM"}, {"measurement": "EC50", "setting": "human PD-1 [5]", "result": 1.3, "unit": "nM"}, {"measurement": "EC50", "setting": "human TIGIT", "result": 1.6, "unit": "nM"}]}, {"binder": "B4", "values": [{"measurement": "EC50", "setting": "human CD28 [4]", "result": 3.39, "unit": "nM"}, {"measurement": "EC50", "setting": "human TIGIT", "result": 2.3, "unit": "nM"}]}, {"binder": "B5", "values": [{"measurement": "% CD25 Hi FoxP3 +", "setting": "human CD80", "result": 19.1, "unit": "% at 100 nM"}, {"measurement": "% CD25 Hi FoxP3 +", "setting": "PD-1", "result": 19.1, "unit": "% at 100 nM"}]}, {"binder": "B6", "values": [{"measurement": "% CD25 Hi FoxP3 +", "setting": "human CD80", "result": 44.2, "unit": "% at 100 nM"}, {"measurement": "% CD25 Hi FoxP3 +", "setting": "PD-1", "result": 44.2, "unit": "% at 100 nM"}]}, {"binder": "B7", "values": [{"measurement": "100 nM IFN-gamma (pg/mL), SEB assay", "setting": "CD28", "result": 2120, "unit": "pg/mL"}, {"measurement": "100 nM IFN-gamma (pg/mL), SEB assay", "setting": "TIGIT", "result": 2120, "unit": "pg/mL"}]}]}
